± gives the uncertainty stated by the source.
Experiment: self-splicing fitness, log relative to wild type (ln ratio); higher = more splicing; Tetrahymena group I intron in knt gene, E. coli kanamycin selection, DiMSum; sequences stand for … in CUCUCU…GGAGGGAAAAGUUAUCAGGCAUGCACCUGGUAGCUAGUCUUUAAACCAAUAGAUUGCAUCGGUUUAAAAGGCAAGACCGUCAAAUUGCGGGAAAGGGGUCAACAGCCGUUCAGUACCAAGUCUCAGGGGAAACUUUGAGAUGGCCUUGCAAAGGGUAUGGUAAUAAGCUGACGGACAUGGUCCUAACCACGCAGCCAAGUCCUAAGUCAACAGAUCUUCUGUUGAUAUGGAUGCAGUUCACAGACUAAAUGUCGGUCGGGGAAGAUGUAUUCUUCUCAUAAGAUAUAGUCGGACCUCUCCUUAAUGGGAGCUAGCGGAUGAAGUGAUGCAACACUGGAGCCGCUGGGAACUAAUUUGUAUGCGAAAGUAUAUUGAUUAGUUUUGGAGUACUCGUGGUCG
Method in brief: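 DiMSum derived fitness as the error-weighted combination of fold changes across replicates, kanamycin versus no kanamycin, normalised to wild type. E. coli BL21(DE3) held the library, which randomised all eight P1ex-region intron nucleotides within the knt kanamycin-resistance gene on pET-22b(+). Six replicate transformations grew overnight at 37°C or 30°C on LB agar with or without 25 μg/mL kanamycin, also containing 100 μg/mL carbenicillin, 50 μM IPTG and 0.2% rhamnose, and pooled colonies were amplicon-sequenced on an Illumina HiSeq 2500.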

Sequence | self-splicing fitness (ln) (30 °C) | self-splicing fitness (ln) (37 °C)
AUGGAGCAAUAUUACGUCUC | -1.83 ± 0.28 | -1.89 ± 0.37
CUCCAGCAAUAUUACGCUAU | -3.89 ± 0.33 | -2.44 ± 0.22
AUGUAGCAAUAUUACGUACG | -1.41 ± 0.1 | -0.212 ± 0.13
GUAGAGCAAUAUUACGACAU | 0.278 ± 0.014 | 0.459 ± 0.033
AAAUAGCAAUAUUACGAUGU | -1.21 ± 0.078 | -0.875 ± 0.089
AAGCAGCAAUAUUACGUGUU | -3.31 ± 0.1 | -1.65 ± 0.089
GUGAAGCAAUAUUACGUGCA | 0.391 ± 0.085 | -0.0531 ± 0.11
ACCCAGCAAUAUUACGGCCC | -0.0475 ± 0.11 | -0.539 ± 0.15
UGUAAGCAAUAUUACGUCUU | -1.74 ± 0.093 | -0.338 ± 0.11
UGUCAGCAAUAUUACGGGAA | -1.71 ± 0.12 | -0.986 ± 0.11
CGUGAGCAAUAUUACGAGUG | -1.24 ± 0.12 | 0.147 ± 0.16
CAACAGCAAUAUUACGGCGG | -0.393 ± 0.056 | 0.0944 ± 0.082
CCGCAGCAAUAUUACGUAAA | -4.2 ± 0.25 | -2.62 ± 0.2
AGCAAGCAAUAUUACGACCA | -0.697 ± 0.09 | -0.178 ± 0.12
AAAUAGCAAUAUUACGGCUC | -0.691 ± 0.14 | 0.393 ± 0.18
CCGAAGCAAUAUUACGCCUG | -1.04 ± 0.094 | -1.17 ± 0.11
AUCCAGCAAUAUUACGAUUG | -4.83 ± 0.34 | -3.03 ± 0.24
CGUCAGCAAUAUUACGAACU | -0.352 ± 0.095 | -0.0116 ± 0.11
GCGAAGCAAUAUUACGUCUA | -1.16 ± 0.1 | -1.3 ± 0.093
GAAAAGCAAUAUUACGCCAG | -2.72 ± 0.21 | -2.28 ± 0.32
UAGGAGCAAUAUUACGAUGU |  | -1.79 ± 0.4
UAUAAGCAAUAUUACGAUGC | -3.29 ± 0.36 | -2.63 ± 0.27
GAAUAGCAAUAUUACGUCUG | -1.85 ± 0.075 | -0.674 ± 0.082
ACGUAGCAAUAUUACGGUGC | -3.86 ± 0.4 | -2.01 ± 0.22
AGCGAGCAAUAUUACGCGUG | -1.48 ± 0.098 | -1.65 ± 0.13

Sequence | self-splicing fitness (ln) (30 °C) | self-splicing fitness (ln) (37 °C)
CCGAAGCAAUAUUACGUCGA | -2.38 ± 0.17 | -1.74 ± 0.12
CGCAAGCAAUAUUACGCCUU | -2.63 ± 0.17 | -2.62 ± 0.26
CAGUAGCAAUAUUACGCAGA | -2.68 ± 0.37 | -2.43 ± 0.3
AAUAAGCAAUAUUACGGCUA | 0.107 ± 0.1 | 0.0369 ± 0.13
AAAAAGCAAUAUUACGUCCA | -0.18 ± 0.076 | 0.113 ± 0.11
UACCAGCAAUAUUACGCUGA | -2.43 ± 0.15 | -1.21 ± 0.11
UCAAAGCAAUAUUACGCCGA | -1.49 ± 0.15 | -0.381 ± 0.12
GAGAAGCAAUAUUACGCACG | -0.497 ± 0.14 | -0.392 ± 0.15
AUAUAGCAAUAUUACGUACG | -2.49 ± 0.2 | -0.317 ± 0.15
CGAAAGCAAUAUUACGGAGA | -2.59 ± 0.29 | -1.58 ± 0.37
AUCUAGCAAUAUUACGACUU | -0.1 ± 0.074 | 0.24 ± 0.092
AGUGAGCAAUAUUACGGGAC | -4.1 ± 0.47 | 
GAAUAGCAAUAUUACGGAUA | -2.36 ± 0.26 | -1.46 ± 0.21
CAGAAGCAAUAUUACGAUUC |  | -1.98 ± 0.18
UUAAAGCAAUAUUACGUUUG | -2.18 ± 0.087 | -0.699 ± 0.093
AUGCAGCAAUAUUACGCGAU | -3.67 ± 0.3 | -1.92 ± 0.25
ACUAAGCAAUAUUACGGCAC | -0.673 ± 0.096 | -1.92 ± 0.095
GGGCAGCAAUAUUACGUGUG | -2.34 ± 0.14 | -1.26 ± 0.16
UGGGAGCAAUAUUACGAUAA | -0.547 ± 0.44 | 
AUAAAGCAAUAUUACGUAUG | -2.13 ± 0.097 | -1.34 ± 0.12
CAAGAGCAAUAUUACGAGGU | -4.09 ± 0.24 | -2.71 ± 0.23
UGCAAGCAAUAUUACGUGAG | -3.87 ± 0.21 | -2.72 ± 0.18
AACCAGCAAUAUUACGUCUC | -1.23 ± 0.056 | -0.774 ± 0.076
CUCAAGCAAUAUUACGCAGC | -4.03 ± 0.43 | -1.9 ± 0.44

Reference: the supplement of paper PMC7877785
